T1: recombinant Mycobacterium tuberculosis rTB18.6 (Mycobacterium tuberculosis H37Rv, UniProt P9WFN1 1-176)
T1 construct: also called pHis-tb18.6 product
T1 sequence: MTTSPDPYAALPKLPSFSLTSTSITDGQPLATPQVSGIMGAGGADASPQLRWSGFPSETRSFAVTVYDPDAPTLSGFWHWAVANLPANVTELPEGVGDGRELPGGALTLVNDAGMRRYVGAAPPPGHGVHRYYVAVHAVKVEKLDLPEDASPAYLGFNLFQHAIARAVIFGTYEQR

T2: recombinant Mycobacterium tuberculosis rABC (Mycobacterium tuberculosis H37Rv, UniProt P9WQK3 1-558)
T2 construct: also called rABC transporter; pHis-abc product
T2 sequence: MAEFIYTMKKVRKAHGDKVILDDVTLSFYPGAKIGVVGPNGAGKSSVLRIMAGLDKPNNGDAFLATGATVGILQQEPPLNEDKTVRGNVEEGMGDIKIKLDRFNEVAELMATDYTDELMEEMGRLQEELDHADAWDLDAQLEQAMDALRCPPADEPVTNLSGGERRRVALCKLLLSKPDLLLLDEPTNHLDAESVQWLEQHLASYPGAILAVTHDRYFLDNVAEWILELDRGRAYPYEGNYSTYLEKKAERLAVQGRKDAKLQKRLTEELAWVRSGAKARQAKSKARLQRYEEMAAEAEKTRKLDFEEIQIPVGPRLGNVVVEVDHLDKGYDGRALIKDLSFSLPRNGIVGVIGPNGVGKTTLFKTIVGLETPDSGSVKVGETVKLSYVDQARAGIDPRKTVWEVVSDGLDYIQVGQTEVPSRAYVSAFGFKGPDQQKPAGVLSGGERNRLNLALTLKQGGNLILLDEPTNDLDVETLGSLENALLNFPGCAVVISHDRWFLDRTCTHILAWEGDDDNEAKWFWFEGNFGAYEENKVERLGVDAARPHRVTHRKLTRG

B1: biotin-labeled recombinant human SAA1 (natural protein, UniProt P0DJI8 19-122, looked up)
chain: RSFFSFLGEAFDGARDMWRAYSDMREANYIGSDKYFHARGNYDAAKRGPGGAWAAEVITDARENIQRFFGHGAEDSLADQAANEWGRSGKDPNHFRPAGLPEKY
modifications: biotin (Sulfo-NHS-biotin labeling; sites not stated)
notes: serum amyloid A1 (SAA1), human, recombinant, bought from Sigma Aldrich; Same bought protein as m1, biotinylated; detected with streptavidin-HRP; also called biotinylated SAA1; biotin-labeled human SAA1; source: bought: Sigma Aldrich (recombinant), labeled with EZ-Link Micro Sulfo-NHS-Biotinylation Kit
B2: recombinant human serum amyloid A (SAA1) (natural protein, UniProt P0DJI8 19-122, looked up)
chain: B1 chain
notes: serum amyloid A1 (SAA1), human, recombinant, bought from Sigma Aldrich; also called human SAA1; human acute phase protein; source: bought: Sigma Aldrich (recombinant)

Legend:
Details in all cases: both partners purified
[1] = biological target: T3, recombinant Mycobacterium tuberculosis rThiC (Mycobacterium tuberculosis H37Rv, UniProt P9WG79 1-547); experiment: far-Western, overlay or dot blot; recombinant Mtb proteins separated by reducing SDS-PAGE (12% gel), transferred to nitrocellulose, incubated 2 h at room temperature with biotin-labeled SAA1 at 10 µg/mL in PBS/0.05% Tween 20/0.1% BSA; streptavidin-peroxidase detection
T3 construct: also called pHis-thiC product
T3 sequence (P9WG79 whole entry): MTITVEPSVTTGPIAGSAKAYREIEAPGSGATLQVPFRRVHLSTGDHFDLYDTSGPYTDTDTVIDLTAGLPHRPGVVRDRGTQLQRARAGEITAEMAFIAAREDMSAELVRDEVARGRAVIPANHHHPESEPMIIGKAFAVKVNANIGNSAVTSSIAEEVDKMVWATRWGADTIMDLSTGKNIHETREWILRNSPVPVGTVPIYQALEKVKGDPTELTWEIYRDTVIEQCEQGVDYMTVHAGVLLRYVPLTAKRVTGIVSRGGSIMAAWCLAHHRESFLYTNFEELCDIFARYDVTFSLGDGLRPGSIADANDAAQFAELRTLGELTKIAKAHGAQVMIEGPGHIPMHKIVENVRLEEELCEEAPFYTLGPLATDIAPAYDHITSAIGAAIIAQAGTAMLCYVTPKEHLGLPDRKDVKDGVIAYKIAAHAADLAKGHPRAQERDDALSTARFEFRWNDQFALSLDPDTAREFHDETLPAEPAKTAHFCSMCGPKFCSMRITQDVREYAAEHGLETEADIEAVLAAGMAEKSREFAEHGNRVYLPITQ

[2] = biological target: T1, recombinant Mycobacterium tuberculosis …; experiment: as above
[3] = biological target: T4, recombinant Mycobacterium tuberculosis rEspB (Mycobacterium tuberculosis H37Rv, UniProt P9WJD9 1-460); experiment: as above
T4 construct: also called pHis-espB product
T4 sequence (P9WJD9 whole entry): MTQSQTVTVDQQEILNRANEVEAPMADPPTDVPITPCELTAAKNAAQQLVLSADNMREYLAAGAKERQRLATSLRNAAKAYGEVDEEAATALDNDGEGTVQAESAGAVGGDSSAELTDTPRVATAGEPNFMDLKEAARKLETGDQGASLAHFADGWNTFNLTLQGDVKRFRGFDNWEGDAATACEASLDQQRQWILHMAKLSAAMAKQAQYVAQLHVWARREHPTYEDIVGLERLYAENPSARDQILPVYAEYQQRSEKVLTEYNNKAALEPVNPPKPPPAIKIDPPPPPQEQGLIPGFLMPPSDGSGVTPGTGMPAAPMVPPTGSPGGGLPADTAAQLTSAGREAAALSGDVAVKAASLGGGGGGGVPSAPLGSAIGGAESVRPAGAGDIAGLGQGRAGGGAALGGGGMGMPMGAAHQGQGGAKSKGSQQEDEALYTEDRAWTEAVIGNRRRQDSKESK

[4] = biological target: T5, recombinant Mycobacterium tuberculosis rAtpA (Mycobacterium tuberculosis H37Rv, UniProt P9WPU7 1-549); experiment: as above
T5 construct: also called pHis-atpA product
T5 sequence (P9WPU7 whole entry): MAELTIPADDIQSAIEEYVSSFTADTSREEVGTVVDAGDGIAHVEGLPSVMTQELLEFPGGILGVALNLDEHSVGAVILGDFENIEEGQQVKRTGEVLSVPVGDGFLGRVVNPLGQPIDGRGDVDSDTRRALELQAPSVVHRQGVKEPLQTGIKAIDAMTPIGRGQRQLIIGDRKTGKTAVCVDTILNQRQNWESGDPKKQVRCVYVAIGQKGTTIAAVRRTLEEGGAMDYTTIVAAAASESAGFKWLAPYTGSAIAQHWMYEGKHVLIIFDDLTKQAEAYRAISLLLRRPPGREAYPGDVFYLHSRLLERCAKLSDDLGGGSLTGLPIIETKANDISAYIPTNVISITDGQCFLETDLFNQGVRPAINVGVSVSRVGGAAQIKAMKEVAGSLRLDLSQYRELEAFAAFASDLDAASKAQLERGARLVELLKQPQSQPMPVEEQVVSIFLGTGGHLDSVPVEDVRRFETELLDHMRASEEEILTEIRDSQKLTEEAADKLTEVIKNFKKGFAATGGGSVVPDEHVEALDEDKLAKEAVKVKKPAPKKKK

[5] = biological target: T3, recombinant Mycobacterium tuberculosis …; experiment: SPR; Biacore X, CM5 chip; human SAA1 amine-coupled (7850 RU), BSA chip as control and blank; native recombinant Mtb proteins as analytes; 22-25 °C; HBS-EP pH 7.4 (0.01 M HEPES, 0.15 M NaCl, 3 mM EDTA, 0.005% P20); flow 5 or 20 µL/min; global fit, Langmuir 1:1 with drifting baseline
[6] = biological target: T2, recombinant Mycobacterium tuberculosis …; experiment: as above
[7] = biological target: T1, recombinant Mycobacterium tuberculosis …; experiment: as above
[8] = biological target: T4, recombinant Mycobacterium tuberculosis …; experiment: as above
[9] = biological target: T5, recombinant Mycobacterium tuberculosis …; experiment: as above

| Binder | binding result [1] | binding result [2] | binding result [3] | binding result [4] | Kd [5] | Kd [6] | Kd [7] | Kd [8] | Kd [9] |
| --- | --- | --- | --- | --- | --- | --- | --- | --- | --- |
| B1 | binds | binds | binds | binds | – | – | – | – | – |
| B2 | – | – | – | – | 7.53 µM | 11.3 µM | 8.5 µM | 5.06 µM | 0.194 µM |

Source: paper PMC8160739, “Mycobacterium tuberculosis Binds Human Serum Amyloid A, and the Interaction Modulates the Colonization of Human Macrophages and the Transcriptional Response of the Pathogen” (Cells, 2021)
